Assay results reported in paper PMC2094072.

Columns and labels:
Experiment in all cases: fluorescence anisotropy
BLM642-1290 R979/982A = BLM642-1290 R979/982A (UniProt P54132 642-1290, R979A;R982A)
BLM642-1290 = BLM642-1290 (UniProt P54132 642-1290)
BLM642-1290 R959A = BLM642-1290 R959A (UniProt P54132 642-1290, R959A)
BLM642-1290 H798A = BLM642-1290 H798A (UniProt P54132 642-1290, H798A)
BLM642-1290 R979A = BLM642-1290 R979A (UniProt P54132 642-1290, R979A)
BLM642-1290 Q975V = BLM642-1290 Q975V (UniProt P54132 642-1290, Q975V)
BLM642-1290 R982A = BLM642-1290 R982A (UniProt P54132 642-1290, R982A)
Chain of BLM642-1290 R982A (P54132 642-1290 R982A): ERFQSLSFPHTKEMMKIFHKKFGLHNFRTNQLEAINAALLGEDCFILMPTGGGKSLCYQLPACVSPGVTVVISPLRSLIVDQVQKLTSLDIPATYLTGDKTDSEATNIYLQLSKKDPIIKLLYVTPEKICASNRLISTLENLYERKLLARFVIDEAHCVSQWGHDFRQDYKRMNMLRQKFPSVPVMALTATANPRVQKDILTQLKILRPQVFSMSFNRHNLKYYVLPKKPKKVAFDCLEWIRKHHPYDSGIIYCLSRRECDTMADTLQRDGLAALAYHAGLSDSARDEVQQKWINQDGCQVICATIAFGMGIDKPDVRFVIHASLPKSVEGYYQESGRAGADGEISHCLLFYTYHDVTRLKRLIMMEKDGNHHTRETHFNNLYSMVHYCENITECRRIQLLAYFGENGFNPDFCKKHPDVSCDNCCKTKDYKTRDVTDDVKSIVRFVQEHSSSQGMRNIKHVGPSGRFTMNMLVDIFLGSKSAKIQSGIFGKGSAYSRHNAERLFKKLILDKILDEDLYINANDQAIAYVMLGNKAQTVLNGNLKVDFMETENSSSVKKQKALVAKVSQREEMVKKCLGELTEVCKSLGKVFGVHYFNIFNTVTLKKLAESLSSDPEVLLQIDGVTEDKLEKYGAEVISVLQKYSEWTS

Chain of BLM642-1290 Q975V (P54132 642-1290 Q975V): as the sequence (P54132 642-1290 R982A) above, with Q334V, A341R counted along it
Chain of BLM642-1290 R959A (P54132 642-1290 R959A): as the sequence (P54132 642-1290 R982A) above, with R318A, A341R counted along it
Chain of BLM642-1290 R979/982A (P54132 642-1290 R979A/R982A): as the sequence (P54132 642-1290 R982A) above, with R338A counted along it
Chain of BLM642-1290 (P54132 642-1290): as the sequence (P54132 642-1290 R982A) above, with A341R counted along it
Chain of BLM642-1290 H798A (P54132 642-1290 H798A): as the sequence (P54132 642-1290 R982A) above, with H157A, A341R counted along it
Chain of BLM642-1290 R979A (P54132 642-1290 R979A): as the sequence (P54132 642-1290 R982A) above, with R338A, A341R counted along it

B1: oligonucleotide D (21-mer) (ssDNA)
DNA: GGGTTAGGGTTAGGGTTAGGG
Kd (BLM642-1290 R979/982A): 1.32 ± 0.49 nM
Kd (BLM642-1290): 1.11 ± 0.11 nM
Kd (BLM642-1290 R959A): 4.15 ± 0.4 nM
Kd (BLM642-1290 H798A): 5.03 ± 0.55 nM
Kd (BLM642-1290 R979A): 1.91 ± 0.46 nM
Kd (BLM642-1290 Q975V): 3.31 ± 0.4 nM
Kd (BLM642-1290 R982A): 2.13 ± 0.32 nM
